Source: patent publication US20230293647A1 (AUTOLUS, published 2023)

What was measured:
Experiment in all cases: cell microarray
TTYH3 V1 = target: T1, TTYH3 V1 (human, UniProt Q9C0H2)
T1 sequence (looked up): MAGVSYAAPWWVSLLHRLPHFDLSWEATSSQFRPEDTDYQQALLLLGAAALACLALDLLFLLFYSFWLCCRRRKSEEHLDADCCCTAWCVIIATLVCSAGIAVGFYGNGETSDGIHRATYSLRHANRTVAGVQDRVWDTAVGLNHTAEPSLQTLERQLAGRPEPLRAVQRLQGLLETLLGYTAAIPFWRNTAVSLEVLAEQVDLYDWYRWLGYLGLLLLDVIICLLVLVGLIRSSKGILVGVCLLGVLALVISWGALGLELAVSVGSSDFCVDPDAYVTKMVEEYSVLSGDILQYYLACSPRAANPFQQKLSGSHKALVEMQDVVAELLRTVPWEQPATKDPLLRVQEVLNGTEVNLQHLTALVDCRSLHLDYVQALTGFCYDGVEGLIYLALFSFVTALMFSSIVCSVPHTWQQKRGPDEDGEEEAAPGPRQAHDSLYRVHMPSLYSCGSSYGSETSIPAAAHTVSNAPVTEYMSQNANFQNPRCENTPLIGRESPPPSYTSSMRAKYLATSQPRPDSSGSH

LGALS1 = LGALS1 (human, UniProt P09382)
Sequence of LGALS1 (P09382 2-135 limits assumed): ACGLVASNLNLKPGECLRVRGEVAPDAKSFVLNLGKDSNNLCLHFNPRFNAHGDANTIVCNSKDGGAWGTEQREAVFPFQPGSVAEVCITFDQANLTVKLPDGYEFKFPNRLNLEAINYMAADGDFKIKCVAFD

PRCD = target: T2, PRCD (human, UniProt Q00LT1)
T2 sequence (looked up): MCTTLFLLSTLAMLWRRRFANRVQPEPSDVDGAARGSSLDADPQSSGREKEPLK

[1] = target: SARS-CoV-2 full length Spike expressed on cells (SARS-CoV-2, UniProt P0DTC2 14-1273)
KCNAB2 = target: T3, KCNAB2 (human, UniProt Q13303)
T3 sequence (looked up): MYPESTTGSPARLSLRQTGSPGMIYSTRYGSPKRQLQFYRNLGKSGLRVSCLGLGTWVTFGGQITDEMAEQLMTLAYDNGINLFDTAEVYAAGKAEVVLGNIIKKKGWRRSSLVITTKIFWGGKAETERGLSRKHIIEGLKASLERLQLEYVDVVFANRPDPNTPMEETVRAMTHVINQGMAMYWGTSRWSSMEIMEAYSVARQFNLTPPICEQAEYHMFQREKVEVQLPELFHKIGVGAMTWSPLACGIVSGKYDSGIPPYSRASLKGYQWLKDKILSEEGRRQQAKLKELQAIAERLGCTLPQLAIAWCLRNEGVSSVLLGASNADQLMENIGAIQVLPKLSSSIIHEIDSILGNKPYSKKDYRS

IGF1 = IGF1 (human, UniProt P05019)
SIGLEC14 = target: T4, SIGLEC14 (human, UniProt Q08ET2)
T4 sequence (looked up): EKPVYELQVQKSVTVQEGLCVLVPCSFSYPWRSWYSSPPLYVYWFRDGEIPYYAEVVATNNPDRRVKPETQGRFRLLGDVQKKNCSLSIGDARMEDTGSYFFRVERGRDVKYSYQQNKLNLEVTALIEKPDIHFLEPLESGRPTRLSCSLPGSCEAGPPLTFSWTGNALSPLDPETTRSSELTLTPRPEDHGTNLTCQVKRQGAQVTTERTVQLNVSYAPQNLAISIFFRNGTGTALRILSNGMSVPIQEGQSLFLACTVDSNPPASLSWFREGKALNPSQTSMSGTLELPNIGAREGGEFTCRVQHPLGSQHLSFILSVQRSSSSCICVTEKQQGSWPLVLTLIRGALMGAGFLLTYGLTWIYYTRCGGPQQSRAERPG

Measured: binding result

B1: Fc LALA-PG only construct with the ACE2 domain omitted (other)
chain: EPKSCDKTHTCPPCPAPEAAGGPSVFLFPPKPKDTLMISRTPEVTCVVVDVSHEDPEVKFNWYVDGVEVHNAKTKPREEQYNSTYRVVSVLTVLHQDWLNGKEYKCKVSNKALGAPIEKTISKAKGQPREPQVYTLPPSREEMTKNQVSLTCLVKGFYPSDIAVEWESNGQPENNYKTTPPVLDSDGSFFLYSKLTVDKSRWQQGNVFSCSVMHEALHNHYTQKSLSLSPGK
notes: also called control Fc (LALA-PG)
no binding: all assays above
